For 67 sequences, switch fluorescence ratio results are on record in the supplement of paper PMC10126150.

± gives the standard deviation of the averaged measurements.
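Further: ATP exposure 15 min at 22 °C before imaging.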

The data set has as its system ATP. Kind of data set: switch fluorescence ratio, 500 uM ATP over buffer (Cy3 cluster intensity, sum of 5 cycles each) (fold (ratio)); higher = stronger signal-on switching upon ATP binding; sequences stand for … in TCGTCGGCAGCGTCAGATGTGTATAAGAGACAGTTTTTTTTTTTTTTTTTTTTTTTTT…TC. The following applies: aptamer strand: ATP DNA aptamer (quencher-CACCTGGGGGAGTATTGCGGAGGAAGG + anchor), 100 nM annealed; ATP concentration: 500 uM. Put shortly: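 Between each of five buffer/ATP cycles, the flow-cell was stripped with NaOH and re-annealed. Each cycle imaged Cy3-labelled switching-strand clusters, annealed to 100 nM quencher-labelled ATP aptamer on a modified Illumina MiSeq flow-cell, first in selection buffer and then after 15 min with 500 uM ATP at 22 °C. The fluorescence ratio is summed target-cycle over summed buffer-cycle Cy3 intensity per cluster, averaged per switch-domain sequence, with clusters outside 100-1000 RFU excluded.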
As for CAGGGTGGGA, the switch fluorescence ratio came to 1.02 ± 0.044. For TGATTGGGAA, the switch fluorescence ratio came to 0.995 ± 0.021. Consider GGGTAATCTT, for which the switch fluorescence ratio is 0.991 ± 0.028. AGGATGGGGA: the switch fluorescence ratio amounted to 0.99 ± 0.023. With CAGGTCGTT, the switch fluorescence ratio amounted to 1.01 ± 0.054. With GGGTGAGATT, the switch fluorescence ratio worked out at 1.02 ± 0.015. As to TTATCGAGGC, the switch fluorescence ratio was 1.06 ± 0.059. Take TATCAGGGCT: the switch fluorescence ratio worked out at 0.999 ± 0.057. The result for TTTTAGTCT reads 1.01 ± 0.023.

CGCCGAATCT: the switch fluorescence ratio was 0.961 ± 0.042. Take CTTGTATCGG: the switch fluorescence ratio was found to be 1 ± 0.056. The result for TAAACCGGTA reads 1.03 ± 0.031; that for AGGTGCGGAA, 1.0109 ± 0.00064; that for CGGGGGTTTC, 1.02 ± 0.023. Turning to TTTTTGGGTC, the switch fluorescence ratio is 1.03 ± 0.12.

Consider ACAATATTTT, for which the switch fluorescence ratio stood at 1.02 ± 0.02.

In the case of TTTTATGAGC, the switch fluorescence ratio was 1.03 ± 0.045. Regarding GAGGGTAAAT, the switch fluorescence ratio was determined as 1.02 ± 0.023.

For the sequence GTTGCAAAAA, the switch fluorescence ratio is 1.18 ± 0.32. Consider ACATGGGGGT, for which the switch fluorescence ratio is 1.01 ± 0.014. For the sequence CCGGACTCTT, the switch fluorescence ratio was determined as 1.11 ± 0.015. As for ACGCTGCTAC, the switch fluorescence ratio was found to be 4.48 ± 0.3. In the case of AGTGTATGGC, the switch fluorescence ratio stood at 1.01 ± 0.032. On to GAACTAACCA, for which the switch fluorescence ratio is 1.09 ± 0.02.

CGTACTCCTT: the switch fluorescence ratio came to 1.12 ± 0.025. Consider AAGGTTCATA, for which the switch fluorescence ratio worked out at 1.01 ± 0.044. TCATGTTGAT: the switch fluorescence ratio was found to be 1 ± 0.071.

For CGAATTTTTT, the switch fluorescence ratio is 0.9539 ± 0.0064. On to GGTTAAAGAG, for which the switch fluorescence ratio was 0.9868 ± 0.008. To ATATGGTAAA belongs 0.958 ± 0.015; to AATTTGATC, 1.03 ± 0.021.

Take TTGCGGGGGA: the switch fluorescence ratio is 1.01 ± 0.028.

In the case of CAGGTTAAGG, the switch fluorescence ratio is 1.01 ± 0.018. As to CTGGGAATGG, the switch fluorescence ratio worked out at 1.12 ± 0.11. With TTGAGTTGCG, the switch fluorescence ratio was found to be 0.986 ± 0.028. Turning to CTTTGGTTG, the switch fluorescence ratio was determined as 1.01 ± 0.016. ATTATAGTGG: the switch fluorescence ratio amounted to 1.04 ± 0.02. Take AACCTACGGC: the switch fluorescence ratio is 1.38 ± 0.083. For the sequence GTCGAGGGAA, the switch fluorescence ratio came out at 0.995 ± 0.022. Take AGAGAGTTTT: the switch fluorescence ratio is 0.984 ± 0.021. Take ATTTGTCCGG: the switch fluorescence ratio was 1.007 ± 0.0081. For TTGAAATGGT, the switch fluorescence ratio was found to be 0.987 ± 0.018. TTGTGATTCT: the switch fluorescence ratio is 0.97032 ± 0.00028. As for AGCGAGGGA, the switch fluorescence ratio stood at 1.029 ± 0.0068. Consider TTCAACTGGG, for which the switch fluorescence ratio stood at 1.104 ± 0.0025. Take TAACAGTAAC: the switch fluorescence ratio was 1.08 ± 0.05. Regarding TTGGGATTTA, the switch fluorescence ratio was found to be 0.95 ± 0.015. In the case of TTGGGGGTCA, the switch fluorescence ratio was found to be 1.01 ± 0.023. To TTTGTAGGCC belongs 0.989 ± 0.03. Regarding GGGTACTGGT, the switch fluorescence ratio stood at 1 ± 0.026. In the case of ATAGTTTGAG, the switch fluorescence ratio was 1.01 ± 0.018. Regarding AGTATGTGAA, the switch fluorescence ratio came out at 0.97601 ± 0.00029. Take CTTTTTAGAG: the switch fluorescence ratio was found to be 0.994 ± 0.015. On to CTAAATAGAA, for which the switch fluorescence ratio amounted to 0.983 ± 0.074. Regarding ATTAGCAGCA, the switch fluorescence ratio came to 1.05 ± 0.025. Regarding TTGAGTGTCA, the switch fluorescence ratio amounted to 0.9852 ± 0.007. Consider GGTTTTCTAA, for which the switch fluorescence ratio came out at 0.9838 ± 0.0051. In the case of CAAGAGGGGG, the switch fluorescence ratio amounted to 0.978 ± 0.043. To TAGTTGAGAA belongs 0.9851 ± 0.0075; to GACGAACATT, 1.18 ± 0.21; to AAACATAAAG, 0.995 ± 0.027.

With TCCGGTTAGT, the switch fluorescence ratio turned out to be 1.04 ± 0.015. To GATTCCGTCC belongs 1.177 ± 0.0046; to TTTATATATT, 1.01 ± 0.028; to GTTTTTTGCT, 0.9809 ± 0.0051. As to TTAAACCTCT, the switch fluorescence ratio amounted to 1 ± 0.019. As for TGGGCTCTTT, the switch fluorescence ratio was determined as 1 ± 0.019.
